± gives the standard deviation of the averaged measurements.
B1: library; numbered along this chain (parent)
chain: MNIQIGELAKRTACPVVTIRFYEQEGLLPPPGRSRGNFRLYGEEHVERLQFIRHCRSLDMPLSDVRTLLSYRKRPDQDCGEVNMLLDEHIRQVESRIGALLELKHHLVELREACSGARPAQSCGILQGLSDCVCDTRGTTAHPSD

Assays:
[1] = variants of: B1; assay: sfGFP reporter fluorescence (15 h) (µM FITC); higher = higher leak; details: library round: Round 0; ligand: none
Experimental: (§1)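 Cell-free (BL21 Star DE3 extract, PANOx-SP) biosensing: 1 µL Echo-assembled reactions with linear PbrR variant templates (5 nM) and pPbrR-sfGFP reporter, with 1 µM Pb (lead chloride), 30 µM Zn (zinc acetate) or no ligand; endpoint sfGFP fluorescence after 15 h at 30 °C, calibrated as µM FITC. Round 0 library (alanine scan, site saturation, combinatorial) of PbrR from Cupriavidus metallidurans; 2 biological replicates.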

[2] = variants of: B1; assay: sfGFP reporter fluorescence (15 h) (µM FITC); higher = stronger transcriptional activation; details: library round: Round 0
Experimental: as §1

## MNIQIGELAKRTACIVVTIRFYEQEGLLPPPGRSRGNFRLYGEEHVERLQFIRHCRSLDMPLSDVRTLLSYRKRPDQDCGEVNMLLDEHIRQVESRIGALLELKHHLVELREACSGARPAQSCGILQGLSDCVCDTRGTTAHPSD [P15I]
[1]
  sfGFP reporter fluorescence: 0.06047 ± 0.00052
[2]; ligand: 1 µM Pb
  sfGFP reporter fluorescence: 0.0612 ± 0.0015
[2]; ligand: 30 µM Zn
  sfGFP reporter fluorescence: 0.288 ± 0.026

## MNIQIGELAKRTACKVVTIRFYEQEGLLPPPGRSRGNFRLYGEEHVERLQFIRHCRSLDMPLSDVRTLLSYRKRPDQDCGEVNMLLDEHIRQVESRIGALLELKHHLVELREACSGARPAQSCGILQGLSDCVCDTRGTTAHPSD [P15K]
[1]
  sfGFP reporter fluorescence: 0.0634
[2]; ligand: 1 µM Pb
  sfGFP reporter fluorescence: 0.0958 ± 0.01
[2]; ligand: 30 µM Zn
  sfGFP reporter fluorescence: 1.34 ± 0.047

## MNIQIGELAKRTACLVVTIRFYEQEGLLPPPGRSRGNFRLYGEEHVERLQFIRHCRSLDMPLSDVRTLLSYRKRPDQDCGEVNMLLDEHIRQVESRIGALLELKHHLVELREACSGARPAQSCGILQGLSDCVCDTRGTTAHPSD [P15L]
[1]
  sfGFP reporter fluorescence: 0.0667
[2]; ligand: 1 µM Pb
  sfGFP reporter fluorescence: 0.0938 ± 0.0036
[2]; ligand: 30 µM Zn
  sfGFP reporter fluorescence: 1.06 ± 0.078

## MNIQIGELAKRTACMVVTIRFYEQEGLLPPPGRSRGNFRLYGEEHVERLQFIRHCRSLDMPLSDVRTLLSYRKRPDQDCGEVNMLLDEHIRQVESRIGALLELKHHLVELREACSGARPAQSCGILQGLSDCVCDTRGTTAHPSD [P15M]
[1]
  sfGFP reporter fluorescence: 0.0625 ± 0.0018
[2]; ligand: 1 µM Pb
  sfGFP reporter fluorescence: 0.0795 ± 0.001
[2]; ligand: 30 µM Zn
  sfGFP reporter fluorescence: 0.637 ± 0.02

## MNIQIGELAKRTACNVVTIRFYEQEGLLPPPGRSRGNFRLYGEEHVERLQFIRHCRSLDMPLSDVRTLLSYRKRPDQDCGEVNMLLDEHIRQVESRIGALLELKHHLVELREACSGARPAQSCGILQGLSDCVCDTRGTTAHPSD [P15N]
[1]
  sfGFP reporter fluorescence: 0.0629 ± 0.0034
[2]; ligand: 1 µM Pb
  sfGFP reporter fluorescence: 0.0859 ± 0.0018
[2]; ligand: 30 µM Zn
  sfGFP reporter fluorescence: 0.885 ± 0.022

## MNIQIGELAKRTACQVVTIRFYEQEGLLPPPGRSRGNFRLYGEEHVERLQFIRHCRSLDMPLSDVRTLLSYRKRPDQDCGEVNMLLDEHIRQVESRIGALLELKHHLVELREACSGARPAQSCGILQGLSDCVCDTRGTTAHPSD [P15Q]
[1]
  sfGFP reporter fluorescence: 0.0654 ± 0.00078
[2]; ligand: 1 µM Pb
  sfGFP reporter fluorescence: 0.0903 ± 0.0029
[2]; ligand: 30 µM Zn
  sfGFP reporter fluorescence: 0.9395 ± 0.0039

## MNIQIGELAKRTACRVVTIRFYEQEGLLPPPGRSRGNFRLYGEEHVERLQFIRHCRSLDMPLSDVRTLLSYRKRPDQDCGEVNMLLDEHIRQVESRIGALLELKHHLVELREACSGARPAQSCGILQGLSDCVCDTRGTTAHPSD [P15R]
[1]
  sfGFP reporter fluorescence: 0.06341 ± 0.00052
[2]; ligand: 1 µM Pb
  sfGFP reporter fluorescence: 0.0876 ± 0.0021
[2]; ligand: 30 µM Zn
  sfGFP reporter fluorescence: 1.04 ± 0.064

## MNIQIGELAKRTACSVVTIRFYEQEGLLPPPGRSRGNFRLYGEEHVERLQFIRHCRSLDMPLSDVRTLLSYRKRPDQDCGEVNMLLDEHIRQVESRIGALLELKHHLVELREACSGARPAQSCGILQGLSDCVCDTRGTTAHPSD [P15S]
[1]
  sfGFP reporter fluorescence: 0.0621 ± 0.0029
[2]; ligand: 1 µM Pb
  sfGFP reporter fluorescence: 0.0883 ± 0.0052
[2]; ligand: 30 µM Zn
  sfGFP reporter fluorescence: 0.802 ± 0.01

## MNIQIGELAKRTACTVVTIRFYEQEGLLPPPGRSRGNFRLYGEEHVERLQFIRHCRSLDMPLSDVRTLLSYRKRPDQDCGEVNMLLDEHIRQVESRIGALLELKHHLVELREACSGARPAQSCGILQGLSDCVCDTRGTTAHPSD [P15T]
[1]
  sfGFP reporter fluorescence: 0.0632 ± 0.00078
[2]; ligand: 1 µM Pb
  sfGFP reporter fluorescence: 0.1006 ± 0.00078
[2]; ligand: 30 µM Zn
  sfGFP reporter fluorescence: 0.859 ± 0.058

## MNIQIGELAKRTACVVVTIRFYEQEGLLPPPGRSRGNFRLYGEEHVERLQFIRHCRSLDMPLSDVRTLLSYRKRPDQDCGEVNMLLDEHIRQVESRIGALLELKHHLVELREACSGARPAQSCGILQGLSDCVCDTRGTTAHPSD [P15V]
[1]
  sfGFP reporter fluorescence: 0.0757 ± 0.00078
[2]; ligand: 1 µM Pb
  sfGFP reporter fluorescence: 0.07385 ± 0.00026
[2]; ligand: 30 µM Zn
  sfGFP reporter fluorescence: 0.212 ± 0.018

## MNIQIGELAKRTACWVVTIRFYEQEGLLPPPGRSRGNFRLYGEEHVERLQFIRHCRSLDMPLSDVRTLLSYRKRPDQDCGEVNMLLDEHIRQVESRIGALLELKHHLVELREACSGARPAQSCGILQGLSDCVCDTRGTTAHPSD [P15W]
[1]
  sfGFP reporter fluorescence: 0.061 ± 0.0013
[2]; ligand: 1 µM Pb
  sfGFP reporter fluorescence: 0.06139 ± 0.00026
[2]; ligand: 30 µM Zn
  sfGFP reporter fluorescence: 0.06634 ± 0.00052

## MNIQIGELAKRTACYVVTIRFYEQEGLLPPPGRSRGNFRLYGEEHVERLQFIRHCRSLDMPLSDVRTLLSYRKRPDQDCGEVNMLLDEHIRQVESRIGALLELKHHLVELREACSGARPAQSCGILQGLSDCVCDTRGTTAHPSD [P15Y]
[1]
  sfGFP reporter fluorescence: 0.0652 ± 0.0021
[2]; ligand: 1 µM Pb
  sfGFP reporter fluorescence: 0.0684 ± 0.0034
[2]; ligand: 30 µM Zn
  sfGFP reporter fluorescence: 0.368 ± 0.0021

## MNIQIGELAKRTACPAVTIRFYEQEGLLPPPGRSRGNFRLYGEEHVERLQFIRHCRSLDMPLSDVRTLLSYRKRPDQDCGEVNMLLDEHIRQVESRIGALLELKHHLVELREACSGARPAQSCGILQGLSDCVCDTRGTTAHPSD [V16A]
[1]
  sfGFP reporter fluorescence: 0.059 ± 0.0015
[2]; ligand: 1 µM Pb
  sfGFP reporter fluorescence: 0.0729 ± 0.0015
[2]; ligand: 30 µM Zn
  sfGFP reporter fluorescence: 1.06 ± 0.1

## MNIQIGELAKRTACPCVTIRFYEQEGLLPPPGRSRGNFRLYGEEHVERLQFIRHCRSLDMPLSDVRTLLSYRKRPDQDCGEVNMLLDEHIRQVESRIGALLELKHHLVELREACSGARPAQSCGILQGLSDCVCDTRGTTAHPSD [V16C]
[1]
  sfGFP reporter fluorescence: 0.0634
[2]; ligand: 1 µM Pb
  sfGFP reporter fluorescence: 0.0861 ± 0.0021
[2]; ligand: 30 µM Zn
  sfGFP reporter fluorescence: 0.341 ± 0.081

— the supplement of paper PMC12783771
